Assay [1] deals with T1, human ezrin FERM-domain (residues 1–295) (Homo sapiens, UniProt P15311).
T1 construct: human ezrin FERM-domain (residues 1–295); 8xHis-tag (N); TEV cleavage site (N); made in house; host or cells: E. coli BL21*
The assay can be described thus: Microscale thermophoresis (MST), binding to FERM-Alexa488. To be noted: Z-test for population means; for Affinity for FERM, full-length AQP compared with its C-terminal tail: significant if p < 0.05. The protocol:
For each AQP, a 1:1 dilution series was made resulting in 12 samples with a concentration range of 0.0419–86.0 μM for AQP2 and 0.029–60.6 μM for AQP5. The samples were mixed with an equal volume of FERM that had been labelled with Alexa-488, transferred to MST capillaries, and MST traces were recorded (Figure S1). From these traces, the difference in normalized fluorescence before and after heating was used to generate a binding curve for each AQP from which the dissociation constant (Kd) could be determined (Figure 3a).
This artefact became even more prominent when the AQP concentration was increased further. As a result, AQP concentrations that would lead to saturation could not be used in the case of AQP5, wherefore the estimated Kd-value should be evaluated with caution.
Next, we set out to investigate if the interaction between FERM and AQP2/AQP5 is mediated by the AQP C-termini as previously proposed. For this purpose, we expressed the AQP2 and AQP5 C-terminal tails (residues 227–271 and 228–265 for AQP2 and AQP5 respectively) as GST-fusion constructs in E. coli. The purified GST-AQP constructs were then cleaved with thrombin, allowing AQP2 and AQP5 C-termini to be separated from the GST-tag. For each AQP C-terminal peptide, a 1:1 dilution series was made resulting in 12 samples for AQP2 (0.072–294.5 μM) and 16 samples (0.001–337.5 μM) for AQP5, mixed with fluorescently labelled FERM, and MST-traces were recorded and analyzed as described above (Figure S1). […] This confirms the C-terminus as the region responsible for the FERM-interaction for both AQP2 and AQP5.
The E. coli codon-optimized gene for the human ezrin FERM-domain (residues 1–295) was synthesized (Genscript, Piscataway, NJ, USA) and cloned into pET15b using the NdeI and BamHI sites. The final construct contained an N-terminal 8xHis-tag followed by a TEV cleavage site. The plasmid was transformed into calcium-competent E. coli cells BL21* by heat shock. 2x1L LB-media supplemented with 100 μg/mL ampicillin was inoculated with a 5 mL overnight culture. […]

The next assay deals with Ezrin. The settings on record: co-IP and PLA, NS-SV-AC cells; ref [31]; cited from earlier work. An excerpt:
(§1) Several mammalian AQP isoforms have been proposed to directly interact with Ezrin during trafficking.

Assay [2] deals with T2, human ezrin FERM-domain (residues 1-295), labelled with Alexa-488 (human, UniProt P15311 1-295, cysteine-reactive C5 maleimide-Alexa 488 on cysteines).
T2 construct: ezrin, human, FERM-domain, residues 1-295; the construct has an N-terminal 8xHis-tag followed by a TEV cleavage site; No TEV cleavage is described in the purification; codon-optimised synthetic gene in pET15b; also called FERM-Alexa488; source: E. coli BL21*, purified (His-trap)
The assay can be described thus: MST; AQP (full-length or C-terminal peptide) in a 1:1 dilution series mixed with FERM-Alexa488 at 0.125 uM (0.129 uM for the AQP5 C-terminus); Monolith NT.115, room temperature, LED and MST power 80%; premium capillaries (full-length AQP) or standard capillaries (peptides); three dilution series; one-to-one binding model on monomeric AQP concentration. The settings on record: both partners purified.

The test system of a further assay is LIP5. To be noted: compared with construct truncated immediately after the amphipathic helix; ref [36] Roche et al., 2017; cited from earlier work. The text has this:
Moreover, introduction of pho ...

The next assay relates to Ezrin FERM-domain. To be noted: co-IP and pull-down; ref [30]; cited from earlier work.
Excerpt: as §1

Residues, ends and D or L forms follow the SMILES beside them.

T2 sequence (P15311 1-295): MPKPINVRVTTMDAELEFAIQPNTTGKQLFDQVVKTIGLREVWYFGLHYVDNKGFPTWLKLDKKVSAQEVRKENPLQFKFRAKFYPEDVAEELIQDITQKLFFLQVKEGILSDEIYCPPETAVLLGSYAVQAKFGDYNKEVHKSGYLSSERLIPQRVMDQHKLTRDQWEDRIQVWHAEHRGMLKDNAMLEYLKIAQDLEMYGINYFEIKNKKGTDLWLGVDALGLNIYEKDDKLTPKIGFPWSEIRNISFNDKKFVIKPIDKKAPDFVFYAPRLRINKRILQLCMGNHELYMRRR
T1 sequence (P15311 1-295): as above

Take `CC[C@H](C)[C@H](NC(=O)[C@H](C)NC(=O)[C@@H](NC(=O)[C@H](CCCNC(=N)N)NC(=O)[C@H](CCC(=O)O)NC(=O)[C@H](CO)NC(=O)[C@H](CC(C)C)NC(=O)[C@H](CO)NC(=O)[C@H](CC(C)C)NC(=O)[C@H](CO)NC(=O)[C@H](CC(N)=O)NC(=O)[C@H](CO)NC(=O)CN)C(C)C)C(=O)N[C@H](C(=O)N[C@@H](CCCCN)C(=O)NCC(=O)N[C@H](C(=O)N[C@@H](Cc1ccc(O)cc1)C(=O)N[C@@H](CCC(=O)O)C(=O)N1CCC[C@H]1C(=O)N[C@@H](CC(=O)O)C(=O)N[C@@H](CCC(=O)O)C(=O)N[C@@H](CC(=O)O)C(=O)N[C@@H](Cc1c[nH]c2ccccc12)C(=O)N[C@@H](CCC(=O)O)C(=O)N[C@@H](CCC(=O)O)C(=O)N[C@@H](CCC(N)=O)C(=O)N[C@@H](CCCNC(=N)N)C(=O)N[C@@H](CCC(=O)O)C(=O)N[C@@H](CCC(=O)O)C(=O)N[C@@H](CCCNC(=N)N)C(=O)N[C@@H](CCCCN)C(=O)N[C@@H](CCCCN)C(=O)N[C@H](C(=O)N[C@@H](CCSC)C(=O)N[C@@H](CCC(=O)O)C(=O)N[C@@H](CC(C)C)C(=O)N[C@H](C(=O)N[C@H](C(=O)N[C@@H](CCCNC(=N)N)C(=O)O)[C@@H](C)O)[C@@H](C)O)[C@@H](C)O)[C@@H](C)O)[C@@H](C)CC` [AQP5 C-terminal peptide] (H-GSNSLSLSERVAIIKGTYEPDEDWEEQREERKKTMELTTR-OH; N-terminus and C-terminus assumed): the “Affinity for FERM, AQP5 C-terminal peptide compared with AQP2 C-terminal peptide” value in assay [1] is “somewhat higher (p < 0.05)”.
Consider “full-length AQP5: human aquaporin 5, untagged, recombinantly produced in Pichia pastoris”, for which, in assay [1], the “Affinity for FERM, full-length AQP compared with its C-terminal tail” value is “significant difference between full-length AQP5 and the AQP5 C-terminal tail (p < 0.05)”. For the same molecule, the “Interaction of AQP5 with ezrin” value with Ezrin is reported as “identified an interaction”.

B1: full-length human AQP2 (natural protein, UniProt P41181 1-271, looked up)
chain: MWELRSIAFSRAVFAEFLATLLFVFFGLGSALNWPQALPSVLQIAMAFGLGIGTLVQALGHISGAHINPAVTVACLVGCHVSVLRAAFYVAAQLLGAVAGAALLHEITPADIRGDLAVNALSNSTTAGQAVTVELFLTLQLVLCIFASTDERRGENPGTPALSIGFSVALGHLLGIHYTGCSMNPARSLAPAVVTGKFDDHWVFWIGPLVGAILGSLLYNYVLFPPAKSLSERLAVLKGLEPDTDWEEREVRRRQSVELHSPQSLPRGTKA
notes: aquaporin 2, human, full-length, with an uncleavable His-tag attached to the N-terminus; kept in detergent (0.2% NG); The Kd is fitted on the monomeric AQP concentration; also called Aquaporin 2; source: Pichia pastoris, purified (NG-solubilised membranes, HisTrap, SEC); not shown: His-tag, N-terminal, kept
On to B1, for which, in assay [2], the affinity, expressed as Kd, was 7.8 ± 3.8 µM.

B2: full-length AQP2: human aquaporin 2, recombinantly produced in Pichia pastoris, His-tag at the N-terminus (protein)
chain: MWELRSIAFSRAVFAEFLATLLFVFFGLGSALNWPQALPSVLQIAMAFGLGIGTLVQALGHISGAHINPAVTVACLVGCHVSVLRAAFYVAAQLLGAVAGAALLHEITPADIRGDLAVNALSNSTTAGQAVTVELFLTLQLVLCIFASTDERRGENPGTPALSIGFSVALGHLLGIHYTGCSMNPARSLAPAVVTGKFDDHWVFWIGPLVGAILGSLLYNYVLFPPAKSLSERLAVLKGLEPDTDWEEREVRRRQSVELHSPQSLPRGTKA
modifications: left off: His-tag, N-terminal, kept
notes: human aquaporin 2, recombinantly produced in Pichia pastoris, His-tag at the N-terminus
For B2, the “Affinity for FERM, full-length AQP compared with its C-terminal tail” value in assay [1] is “highly similar”. Further, in the assay with LIP5, the “Affinity for LIP5” value was “higher affinity”. The “Interaction of AQP2 C-terminal tail with ezrin FERM-domain” value in the assay on Ezrin FERM-domain is recorded as “direct interaction”.

B3: AQP5 C-terminal tail (residues 228-265) (peptide, UniProt P55064 228-265, looked up)
chain: NSLSLSERVAIIKGTYEPDEDWEEQREERKKTMELTTR
notes: aquaporin 5, human, C-terminal tail, residues 228-265; Cloned into pET41a (SpeI, AvrII) with a thrombin site (LVPRGS) between GST and the AQP5 C-terminus; also called AQP5 C-terminal peptide; AQP5 C-terminus; source: E. coli BL21*, GST fusion purified (GSTrap), cleaved with thrombin, separated from GST
In assay [2], B3 displayed a Kd of 2.9 ± 0.89 µM.

B4: AQP2 C-terminal tail (residues 227-271) (peptide, UniProt P41181 227-271, looked up)
chain: AKSLSERLAVLKGLEPDTDWEEREVRRRQSVELHSPQSLPRGTKA
notes: aquaporin 2, human, C-terminal tail, residues 227-271; also called AQP2 C-terminal peptide; AQP2 C-terminus; source: E. coli BL21*, GST fusion purified (GSTrap), cleaved with thrombin, separated from GST
Regarding B4, in assay [2], the Kd came to 8.7 ± 2.4 µM.
